The text below walks through data of patent US20150111251A1 (AbbVie / Abbott, published 2015).

Experiment [1] deals with T1, Recombinant Human TNF-α/TNFSF1A (human, UniProt P01375 77-233). As to the kind of experiment: cell-based or functional assay.
In experiment [2] the target is T1, Recombinant Human TNF-α/TNFSF1A. As to the kind of experiment: SPR (BIACORE), antibody captured, TNFα in solution. The method, then: The BIACORE assay (Biacore, Inc, Piscataway, N.J.) determines the affinity of antibodies with kinetic measurements of on-rate and off-rate constants. Binding of antibodies to a target antigen (for example, a purified recombinant target antigen) is determined by surface plasmon resonance-based measurements with a Biacore® 1000 or 3000 instrument (Biacore® AB, Uppsala, Sweden) using running HBS-EP (10 mM HEPES [pH 7.4], 150 mM NaCl, 3 mM EDTA, and 0.005% surfactant P20) at 25° C. All chemicals are obtained from Biacore® AB (Uppsala, Sweden) or otherwise from a different source as described. For example, approximately 5000 RU of goat anti-mouse IgG, (Fcγ), fragment specific polyclonal antibody (Pierce Biotechnology Inc, Rockford, Ill.) diluted in 10 mM sodium acetate (pH 4.5) is directly immobilized across a CM5 research grade biosensor chip using a standard amine coupling kit according to manufacturer's instructions and procedures at 25 μg/ml. Unreacted moieties on the biosensor surface are blocked with ethanolamine. Modified carboxymethyl dextran surface in flowcell 2 and 4 is used as a reaction surface. Unmodified carboxymethyl dextran without goat anti-mouse IgG in flow cell 1 and 3 is used as the reference surface. For kinetic analysis, rate equations derived from the 1:1 Langmuir binding model are fitted simultaneously to association and dissociation phases of all eight injections (using global fit analysis) with the use of Biaevaluation 4.0.1 software. Purified antibodies are diluted in HEPES-buffered saline for capture across goat anti-mouse IgG specific reaction surfaces. Antibodies to be captured as a ligand (25 μg/ml) are injected over reaction matrices at a flow rate of 5 μl/minute. The association and dissociation rate constants, kₒₙ (M⁻¹ s⁻¹) and koff (s⁻¹), are determined under a continuous flow rate of 25 μl/minute. Rate constants are derived by making kinetic binding measurements at different antigen concentrations ranging from 10-200 nM. The equilibrium dissociation constant (M) of the reaction between antibodies and the target antigen is then calculated from the kinetic rate constants by the following formula: KD=koff/kₒₙ. Binding is recorded as a function of time and kinetic rate constants are calculated. In this assay, on-rates as fast as 10⁶ M⁻¹ s⁻¹ and off-rates as slow as 10⁻⁶ s⁻¹ can be measured.

Some results are limits rather than exact numbers.

T1 sequence (P01375 77-233 limits assumed): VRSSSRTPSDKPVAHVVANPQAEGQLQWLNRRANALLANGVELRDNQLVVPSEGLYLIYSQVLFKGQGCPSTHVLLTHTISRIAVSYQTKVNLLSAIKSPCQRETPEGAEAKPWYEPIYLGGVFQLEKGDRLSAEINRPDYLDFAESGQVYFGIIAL

B1: AB375 (antibody, V domains shown)
VH: EIQLVQSGAEVKKPGASVKVSCKASGYTFTNYGMNWVRQAPGQGLEWMGWINTYTGEPTYADDFKGRFTFTLDTSTSTAYMELSSLRSEDTAVYFCARKFLTTVVVTDYAMDYWGQGTTVTVSS
VL: DIQMTQSPSSLSASVGDRVTITCRASQDISNYLNWYQQKPGKAPKLLIYYTSRLQSGVPSRFSGSGSGTDFTLTISSLQPEDFATYYCQQGNTLPPTFGQGTKLEIK
notes: Full-length humanized antibody made in HEK 293-6E; also called hMAK199VH.2a/hMAK199VL.1
As for B1, the “TNFα Neutralization Assay IC50 nM (L929 cells)” value in experiment [1] came out at 11.4 nM. For the same molecule, in experiment [2], the Kd was found to be 1.3 nM, the koff was determined as 0.0011 s⁻¹ and the on-rate constant (kon) was 900000 M⁻¹ s⁻¹.

B2: AB383 (antibody, V domains shown)
VH: EIQLVQSGAEVKKPGASVKVSCKASGYTFTNYGMNWVRQAPGQGLEWMGWINTYTGEPTYADDFKGRVTFTTDTSTSTAYMELSSLRSEDTAVYYCARKFLTTVVVTDYAMDYWGQGTTVTVSS
VL: DIQMTQSPSSLSASVGDRVTITCRASQDISNYLNWYQQKPGKAPKLLIYYTSRLQSGVPSRFSGSGSGTDYTLTISSLQPEDFATYYCQQGNTLPPTFGQGTKLEIK
notes: Full-length humanized antibody made in HEK 293-6E; also called hMAK199VH.2b/hMAK199VL.1b
As to B2, in experiment [1], the “TNFα Neutralization Assay IC50 nM (L929 cells)” value is more than 20 nM. Further, in experiment [2], the dissociation constant Kd came to 2.1 nM, the koff came to 0.0018 s⁻¹ and the kon was found to be 830000 M⁻¹ s⁻¹.

B3: AB379 (antibody, V domains shown)
VH: EIQLVQSGAEVKKPGASVKVSCKASGYTFTNYGMNWVRQAPGQGLEWMGWINTYTGEPTYADDFKGRFTFTLDTSTSTAYMELSSLRSEDTAVYFCARKFLTTVVVTDYAMDYWGQGTTVTVSS
VL: DIVMTQSPAFLSVTPGEKVTITCRASQDISNYLNWYQQKPDQTVKLLIYYTSRLQSGVPSRFSGSGSGTDYTFTISSLEAEDAATYFCQQGNTLPPTFGQGTKLEIK
notes: Full-length humanized antibody made in HEK 293-6E; also called hMAK199VH.2a/hMAK199VL.2a
As for B3, the “TNFα Neutralization Assay IC50 nM (L929 cells)” value in experiment [1] is more than 20 nM. In addition, in experiment [2], the Kd was determined as 1.8 nM, the koff was determined as 0.0016 s⁻¹ and the on-rate constant (kon) is 890000 M⁻¹ s⁻¹.

B4: AB382 (antibody, V domains shown)
VH: EIQLVQSGAEVKKPGASVKVSCKASGYTFTNYGMNWVRQAPGQGLEWMGWINTYTGEPTYADDFKGRVTFTTDTSTSTAYMELSSLRSEDTAVYYCARKFLTTVVVTDYAMDYWGQGTTVTVSS
VL: DIQMTQSPSSLSASVGDRVTITCRASQDISNYLNWYQQKPGKTVKLLIYYTSRLQSGVPSRFSGSGSGTDYTLTISSLQPEDFATYFCQQGNTLPPTFGQGTKLEIK
notes: Full-length humanized antibody made in HEK 293-6E; also called hMAK199VH.2b/hMAK199VL.1a
In the case of B4, the “TNFα Neutralization Assay IC50 nM (L929 cells)” value in experiment [1] was 1.19 nM. Further, in experiment [2], the dissociation constant Kd came to 2 nM, the off-rate (koff) was found to be 0.0015 s⁻¹ and the on-rate (kon) worked out at 740000 M⁻¹ s⁻¹.

B5: AB385 (antibody, V domains shown)
VH: EIQLVQSGAEVKKPGASVKVSCKASGYTFTNYGMNWVRQAPGQGLEWMGWINTYTGEPTYADDFKGRVTFTTDTSTSTAYMELSSLRSEDTAVYYCARKFLTTVVVTDYAMDYWGQGTTVTVSS
VL: DIVMTQSPAFLSVTPGEKVTITCRASQDISNYLNWYQQKPDQTVKLLIYYTSRLQSGVPSRFSGSGSGTDYTFTISSLEAEDAATYFCQQGNTLPPTFGQGTKLEIK
notes: Full-length humanized antibody made in HEK 293-6E; also called hMAK199VH.2b/hMAK199VL.2a
Consider B5, for which the “TNFα Neutralization Assay IC50 nM (L929 cells)” value in experiment [1] stood at 9.76 nM. Besides, in experiment [2], the Kd is 2.2 nM, the off-rate constant (koff) was 0.0019 s⁻¹ and the association rate constant (kon) came to 880000 M⁻¹ s⁻¹.

B6: AB386 (antibody, V domains shown)
VH: EIQLVQSGAEVKKPGASVKVSCKASGYTFTNYGMNWVRQAPGQGLEWMGWINTYTGEPTYADDFKGRVTFTTDTSTSTAYMELSSLRSEDTAVYYCARKFLTTVVVTDYAMDYWGQGTTVTVSS
VL: DIVMTQSPAFLSVTPGEKVTITCRASQDISNYLNWYQQKPDQAPKLLIYYTSRLQSGVPSRFSGSGSGTDYTFTISSLEAEDAATYYCQQGNTLPPTFGQGTKLEIK
notes: Full-length humanized antibody made in HEK 293-6E; also called hMAK199VH.2b/hMAK199VL.2b
Turning to B6, the “TNFα Neutralization Assay IC50 nM (L929 cells)” value in experiment [1] is more than 20 nM. Besides, in experiment [2], the dissociation constant (Kd) was 2.3 nM, the off-rate (koff) was determined as 0.0015 s⁻¹ and the kon stood at 660000 M⁻¹ s⁻¹.

B7: AB381 (antibody, V domains shown)
VH: EIQLVQSGAEVKKPGASVKVSCKASGYTFTNYGMNWVRQAPGQGLEWMGWINTYTGEPTYADDFKGRVTFTTDTSTSTAYMELSSLRSEDTAVYYCARKFLTTVVVTDYAMDYWGQGTTVTVSS
VL: DIQMTQSPSSLSASVGDRVTITCRASQDISNYLNWYQQKPGKAPKLLIYYTSRLQSGVPSRFSGSGSGTDFTLTISSLQPEDFATYYCQQGNTLPPTFGQGTKLEIK
notes: Full-length humanized antibody made in HEK 293-6E; also called hMAK199VH.2b/hMAK199VL.1
Regarding B7, in experiment [1], the “TNFα Neutralization Assay IC50 nM (L929 cells)” value was 5.9 nM. For the same molecule, in experiment [2], the equilibrium dissociation constant (Kd) is 1.9 nM, the koff was 0.0017 s⁻¹ and the association rate constant (kon) was found to be 860000 M⁻¹ s⁻¹.

B8: AB376 (antibody, V domains shown)
VH: EIQLVQSGAEVKKPGASVKVSCKASGYTFTNYGMNWVRQAPGQGLEWMGWINTYTGEPTYADDFKGRFTFTLDTSTSTAYMELSSLRSEDTAVYFCARKFLTTVVVTDYAMDYWGQGTTVTVSS
VL: DIQMTQSPSSLSASVGDRVTITCRASQDISNYLNWYQQKPGKTVKLLIYYTSRLQSGVPSRFSGSGSGTDYTLTISSLQPEDFATYFCQQGNTLPPTFGQGTKLEIK
notes: Full-length humanized antibody made in HEK 293-6E; also called hMAK199VH.2a/hMAK199VL.1a
As for B8, the “TNFα Neutralization Assay IC50 nM (L929 cells)” value in experiment [1] worked out at 3.65 nM. Further, in experiment [2], the Kd came out at 1.3 nM, the koff stood at 0.0014 s⁻¹ and the on-rate constant (kon) was found to be 1.1e+06 M⁻¹ s⁻¹.
